In the supplement of paper PMC10724198:
± gives the standard deviation of the averaged measurements.

System: Saccharomyces cerevisiae
Experiment: protein stability index of tFT-peptide fusion (C-terminal peptide) (PSI (0-1 scale)); higher = more stable (slower turnover)
Settings: genetic background: wild type; temperature: 30 C
Protocol: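 Multiplexed protein stability (MPS) profiling in S. cerevisiae. Random 12-aa peptides (tFT-X12 library) are fused to the C-terminus of a sfGFP-mCherry tandem fluorescent timer, after mCherry and a GGGS linker. Cells are FACS-sorted into 8 mCherry/sfGFP bins and deep-sequenced. The protein stability index (PSI) is the read-weighted bin average, scaled from 0 (unstable) to 1 (stable). Only peptides with >10 reads are reported; cells were grown at 30 °C in SC-His with glucose.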
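Note: PSI is a weighted mean of sequencing reads over stability bins, variants kept only with over 10 reads, mCherry proximal and sfGFP distal, peptide attached via GGGS linker.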

Row | Sequence | protein stability index
1 | GKVGGQGGKGVV | 0.765 ± 0.13
2 | GGGEGVPDSASE | 0.668 ± 0.021
3 | AAQDTRAHYRTR | 0.704 ± 0.044
4 | PIPPHGTPPAAY | 0.694 ± 0.036
5 | PSPPHPPIPTSP | 0.696 ± 0.015
6 | RVLPSDSPVAPA | 0.667 ± 0.044
7 | PPSPAPSPPRPL | 0.702 ± 0.021
8 | TKLKKKGTKKKR | 0.662 ± 0.018
9 | DYNQWSAHHYGV | 0.693 ± 0.029
10 | GKAGGNREGTGT | 0.689 ± 0.048
11 | LLHHPPPPPSQP | 0.769 ± 0.011
12 | PAWGEQYYGNVR | 0.69 ± 0.057
13 | PKKTTIQRDKTN | 0.607 ± 0.027
14 | PSLPDSALRHSL | 0.70673 ± 9.8e-05
15 | GGWGGGGLGGAF | 0.741 ± 0.037
16 | PPPPPTPPHQPR | 0.79 ± 0.022
17 | PPIPYIVPPSYT | 0.657 ± 0.015
18 | PTAPVLRPPASP | 0.7 ± 0.011
19 | DARLSPVRNRLF | 0.652 ± 0.17
20 | ATILILHTSPQF | 0.655 ± 0.041
21 | PSTLLTFAISIP | 0.666 ± 0.045
22 | LNEGSDRTKNKK | 0.709 ± 0.065
23 | AGSQEDGRSIKG | 0.669 ± 0.024
24 | CGLRVVGVVGAP | 0.712 ± 0.062
25 | QKQINQKKRTMK | 0.649 ± 0.055

Row | Sequence | protein stability index
26 | QLENQRGWDRKI | 0.656 ± 0.038
27 | FSFVPRHGVSFR | 0.6349 ± 0.0059
28 | SRPSSFRLRFLH | 0.393 ± 0.18
29 | TIIRQRHYAPNL | 0.6771 ± 0.0056
30 | SKERLKSEKMKK | 0.745 ± 0.059
31 | KHCFDIEILRYQ | 0.664 ± 0.016
32 | KKRGKNSKAQRE | 0.694 ± 0.013
33 | PPPLAPPSVPCS | 0.604 ± 0.053
34 | NVRCLVELGGEV | 0.714 ± 0.058
35 | RLSPPPTLSRFH | 0.643 ± 0.03
36 | VLLRRRSIWPLG | 0.72 ± 0.0063
37 | YVLLSRFYLPPL | 0.665 ± 0.02
38 | PPSSPPFLPSRP | 0.677 ± 0.031
39 | GLPPPAPRRPDL | 0.664 ± 0.0077
40 | SSPPSPPPPTPS | 0.702 ± 0.031
41 | DSVRRMAEGKRE | 0.672 ± 0.029
42 | KKKIERKKNKEK | 0.743 ± 0.071
43 | FLTCTTSLPFVP | 0.728 ± 0.13
44 | DPYYGFRMRIPF | 0.691 ± 0.026
45 | GGGGCVMGVGRV | 0.668 ± 0.0092
46 | LWGWAGLRCGGF | 0.685 ± 0.032
47 | PPPNPPPALPPL | 0.664 ± 0.047
48 | PPPPPTPHTPLL | 0.672 ± 0.031
49 | DENLYGGFRTSM | 0.725 ± 0.0078
50 | PPPWPSLCLPPS | 0.706 ± 0.048

Row | Sequence | protein stability index
51 | TFIKMEKKKDGG | 0.663 ± 0.034
52 | RSALFLLTLVPI | 0.565 ± 0.018
53 | PLPTSRKSFGLV | 0.665 ± 0.06
54 | YGMETVAVYTEG | 0.666 ± 0.019
55 | TRLLPQRPLGGV | 0.717 ± 0.046
56 | ARIECLIFPGCK | 0.626 ± 0.022
57 | SPVGCYAIIARM | 0.628 ± 0.042
58 | GFRFSERRFPGL | 0.733 ± 0.0092
59 | VRMKAAIGNGAE | 0.6686 ± 0.0037
60 | GGRGAGGGVELR | 0.661 ± 0.075
61 | RVRSKNIKIRWK | 0.798 ± 0.029
62 | DGGIVTVSLGWC | 0.662 ± 0.064
63 | AEGGGWSFELEG | 0.746 ± 0.02
64 | RLSNIARRQENG | 0.623 ± 0.017
65 | YVWVPCIRSVLV | 0.491 ± 0.018
66 | GVQDVRAGLLEY | 0.676 ± 0.037
67 | RRVGVVAWGRGG | 0.71 ± 0.01
68 | EAIMNSLLFAVD | 0.664 ± 0.0088
69 | IFHLFPFDNPYD | 0.8 ± 0.048
70 | GKNKKSKTLIKQ | 0.669 ± 0.029
71 | YPDPLSVSPPPA | 0.682 ± 0.097
72 | KKNEEKRRGEGK | 0.67 ± 0.049
73 | RRVELCWAAGVR | 0.641 ± 0.025
74 | SAPFSPSLTHHP | 0.742 ± 0.14
75 | PPYIMCPFTPGG | 0.632 ± 0.024

Row | Sequence | protein stability index
76 | GGGARCGGGCRV | 0.684 ± 0.03
77 | SHLMETPACSAP | 0.915 ± 0.082
78 | AASSDGWHTGGA | 0.694 ± 0.0032
79 | VAWYSLAEGCEG | 0.641 ± 0.043
80 | DCVACFFFYSGG | 0.599 ± 0.0099
81 | GKIEVNTRIPGG | 0.646 ± 0.078
82 | STPRLERDGTTI | 0.635 ± 0.014
83 | ELQVSGNTIIVV | 0.529 ± 0.032
84 | DLRFLQFGFIPW | 0.752 ± 0.043
85 | SPDGVEILPIRG | 0.684 ± 0.017
86 | TARSTSPHHIPR | 0.835 ± 0.22
87 | RSGGGRRGVGWV | 0.641 ± 0.067
88 | GGRRVVKSWVLG | 0.66 ± 0.014
89 | VLFPPLCLSFCF | 0.498 ± 0.044
90 | PPRSHKPPQMQT | 0.663 ± 0.0082
91 | HSSPPPAPPPLP | 0.697 ± 0.019
92 | VDFGTLISEDRM | 0.736 ± 0.036
93 | SPGLYGPLSRGM | 0.684 ± 0.063
94 | KAGDRRPDNHSN | 0.66 ± 0.064
95 | CFPLPRPLPYME | 0.654 ± 0.12
96 | PFSSPPPLSLPP | 0.7308 ± 0.0011
97 | SRLRVVRCVSWV | 0.549 ± 0.1
98 | SFADFVFMDHCA | 0.696 ± 0.062
99 | PPPPVPRPRLPI | 0.648 ± 0.099
100 | KLVGFRPHAWWF | 0.701 ± 0.016

Row | Sequence | protein stability index
101 | VFAGLHSLCFFF | 0.641 ± 0.023
102 | PAPLPPPPPPRP | 0.689 ± 0.015
103 | RRSIAVEFSGTG | 0.679 ± 0.041
104 | KAGCDYYHRRSF | 0.675 ± 0.061
105 | GWALGRAGASGA | 0.701 ± 0.067
106 | VCDLLLTLSFCV | 0.587 ± 0.017
107 | PPPLPRHLRAPP | 0.689 ± 0.018
108 | PPPLHPTTLPQP | 0.733 ± 0.017
109 | SRRSTIRCSTSC | 0.717 ± 0.036
110 | FHPTCAPLPCPP | 0.663 ± 0.038
111 | LTGSGSGQGSRN | 0.688 ± 0.0097
112 | LPYAMPGFHSTR | 0.701 ± 0.037
113 | GARGIHSVRVRR | 0.713 ± 0.053
114 | PWVGRFVRLGVR | 0.676 ± 0.058
115 | AAVLFVHATSHE | 0.685 ± 0.061
116 | PPLPLPPSRSPA | 0.686 ± 0.026
117 | PSAGSPAPLLHP | 0.705 ± 0.064
118 | PTVLFQFSESWP | 0.668 ± 0.044
119 | PPITKKITRNTA | 0.676 ± 0.014
120 | PTITPPPPPPPP | 0.625 ± 0.0067
121 | SLPALPPLGLFS | 0.71 ± 0.017
122 | VLGGGPSIRGLM | 0.655 ± 0.027
123 | ESGDKYKRRTQP | 0.699 ± 0.052
124 | TVATTIRVTKVV | 0.582 ± 0.022
125 | VGGEGKVVRGQE | 0.6518 ± 0.00034

Row | Sequence | protein stability index
126 | TRPLIRRRHWID | 0.697 ± 0.025
127 | PGFFRLSLFPFA | 0.713 ± 0.0083
128 | AHLLLRPPLVAH | 0.486 ± 0.029
129 | CDGPFRLVLGGG | 0.672 ± 0.018
130 | PRTSSPPRPFRF | 0.624 ± 0.022
131 | AIQNSNLNTKVR | 0.675 ± 0.033
132 | NILTIYRTMKSR | 0.6855 ± 0.0056
133 | RLRESMYPSSEE | 0.717 ± 0.0085
134 | RAAVTDPCNPLL | 0.693 ± 0.0094
135 | GSIVVVGVVEGG | 0.729 ± 0.066
136 | RARCPGGQIKLH | 0.714 ± 0.2
137 | GGWWGWAGENTR | 0.7 ± 0.048
138 | GAGRGLRQGSGG | 0.666 ± 0.043
139 | WLGWIVNNSNTE | 0.753 ± 0.058
140 | KKTSQKQKGKRQ | 0.671 ± 0.12
141 | VGSCGGGKVVVE | 0.6555 ± 0.00076
142 | FMHCLLAQFAGL | 0.705 ± 0.11
143 | FWGGGRGLVGEV | 0.664 ± 0.024
144 | FLPLPRPRLLLP | 0.617 ± 0.0076
145 | SNCLKHAYTTRT | 0.6604 ± 0.0056
146 | RAVFLCVWDYSG | 0.597 ± 0.13
